The record followed here is paper PMC7203548.

For test [1], the target named is OTK1-5 K237A ectodomain, biotinylated (pHL-Avitag3) (Drosophila melanogaster) (UniProt Q6AWJ9). The experiment in a line: SPR; equilibrium, apparent KD; biotinylated OTK immobilised on SA chip from dialysed conditioned medium; Biacore T200, PBS, 0.05% Tween 20, 25°C.
For test [2], the target named is PlexA_(ecto) (full-length ectodomain of Drosophila Plexin A, all ten domains, residues 28-1272), biotinylated (Drosophila) (UniProt Q9V491). The test is described as follows: SPR; equilibrium, apparent KD; biotinylated PlexA constructs immobilised on SA chip from dialysed conditioned medium; Biacore T200, PBS, 0.05% Tween 20, 25°C. For orientation: SPR reads the build-up and loss of mass on a sensor chip optically.
Sequence of UniProt Q9V491 (Q9V491 entry or part of it): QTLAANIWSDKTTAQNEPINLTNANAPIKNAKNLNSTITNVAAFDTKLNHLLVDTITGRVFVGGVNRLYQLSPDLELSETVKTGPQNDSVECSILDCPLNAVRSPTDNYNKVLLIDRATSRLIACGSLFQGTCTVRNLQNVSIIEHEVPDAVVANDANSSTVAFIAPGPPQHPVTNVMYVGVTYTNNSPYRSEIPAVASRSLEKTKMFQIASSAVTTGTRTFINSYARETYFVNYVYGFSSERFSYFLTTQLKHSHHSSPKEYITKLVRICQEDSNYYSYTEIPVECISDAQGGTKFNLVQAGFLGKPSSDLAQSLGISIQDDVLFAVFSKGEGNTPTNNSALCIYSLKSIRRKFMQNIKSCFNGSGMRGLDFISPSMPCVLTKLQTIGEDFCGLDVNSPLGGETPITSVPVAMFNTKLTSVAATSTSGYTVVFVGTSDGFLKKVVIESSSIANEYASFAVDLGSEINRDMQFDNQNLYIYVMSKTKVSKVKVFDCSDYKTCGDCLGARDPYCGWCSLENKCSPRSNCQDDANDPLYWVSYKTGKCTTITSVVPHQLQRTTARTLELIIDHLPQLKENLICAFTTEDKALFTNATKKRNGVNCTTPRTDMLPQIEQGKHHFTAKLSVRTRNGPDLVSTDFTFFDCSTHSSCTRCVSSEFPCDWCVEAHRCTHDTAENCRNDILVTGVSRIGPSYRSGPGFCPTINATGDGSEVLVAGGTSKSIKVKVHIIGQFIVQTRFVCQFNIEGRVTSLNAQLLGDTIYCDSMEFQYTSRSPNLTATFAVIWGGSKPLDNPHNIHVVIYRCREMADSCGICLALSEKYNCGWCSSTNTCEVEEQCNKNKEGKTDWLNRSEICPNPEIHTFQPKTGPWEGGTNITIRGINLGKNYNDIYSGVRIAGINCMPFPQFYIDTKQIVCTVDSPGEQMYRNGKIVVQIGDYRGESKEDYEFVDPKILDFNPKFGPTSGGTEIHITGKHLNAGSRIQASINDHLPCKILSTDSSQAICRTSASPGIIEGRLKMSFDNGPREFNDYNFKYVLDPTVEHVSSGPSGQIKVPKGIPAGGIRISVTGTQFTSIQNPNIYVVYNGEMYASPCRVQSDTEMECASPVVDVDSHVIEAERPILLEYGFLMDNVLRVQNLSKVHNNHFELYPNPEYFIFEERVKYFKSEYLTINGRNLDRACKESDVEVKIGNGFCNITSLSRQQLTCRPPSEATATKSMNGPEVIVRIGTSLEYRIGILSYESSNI

Sequence of UniProt Q6AWJ9 (Q6AWJ9 23-580 K237A): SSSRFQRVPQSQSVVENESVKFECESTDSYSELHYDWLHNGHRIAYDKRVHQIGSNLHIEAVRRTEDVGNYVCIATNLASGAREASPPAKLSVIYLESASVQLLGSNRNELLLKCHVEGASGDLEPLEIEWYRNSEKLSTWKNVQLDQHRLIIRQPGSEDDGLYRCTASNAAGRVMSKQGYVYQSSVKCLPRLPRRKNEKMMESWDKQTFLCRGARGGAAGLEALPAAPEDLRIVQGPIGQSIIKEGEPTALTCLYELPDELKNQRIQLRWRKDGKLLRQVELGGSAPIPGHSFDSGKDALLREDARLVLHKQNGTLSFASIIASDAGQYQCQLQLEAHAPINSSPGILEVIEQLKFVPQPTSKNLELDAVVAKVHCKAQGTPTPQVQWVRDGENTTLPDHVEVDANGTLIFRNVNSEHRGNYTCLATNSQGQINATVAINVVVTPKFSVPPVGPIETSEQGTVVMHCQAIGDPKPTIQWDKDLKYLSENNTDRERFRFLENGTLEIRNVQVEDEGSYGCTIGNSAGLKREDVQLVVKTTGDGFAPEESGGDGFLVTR

Consider “Sema1a ectodomain (Drosophila semaphorin 1a) (from UniProt Q24322 1-899) (ligand)”, for which the Kd in test [1] stood at 4 µM; in test [2] it was 7.4 µM.
